# From US20230220063A1, “IL-1BETA BINDING ANTIBODIES FOR USE IN TREATING CANCER” (NOVARTIS AG, priority 2017, published 2023)
# Legend:
# [1] = test system: patients with a prior heart attack and inflammatory atherosclerosis; assay: CANTOS primary endpoint: major adverse cardiovascular events (MACE); type: in vivo, human; settings: in combination with standard of care
# Text: The present invention arose, at least in part, from the analysis of the data generated from the CANTOS trial, which is a randomized, double-blind, placebo-controlled, event-driven trial. […] Participants were followed for incident cancer diagnoses over a median follow-up period of 3.7 years.
# MACE is a composite of cardiovascular death, non-fatal myocardial infarction and non-fatal stroke.
# [2] = test system: vasculature in trabecular bone; assay: Blocking IL-1β signalling: blood vessels in the bone microenvironment of mice; type: in vivo
# Description: Vasculature was visualised following CD34 and endomucin immunohistochemistry and the concentration of vascular endothelial growth factor (VEGF) and endothelin-1 in serum and/or bone marrow was determined by ELISA. Effects on bone volume were measured by Micro computed tomography (uCT).
# (§1) Tumor cells, serum, and bone were subsequently resected for downstream analysis.
# [3] = test system: MDA-MB-231 Luc2-TdTomato cells; assay: Spontaneous human breast cancer metastasis to human bone implants in NOD SCID mice; type: in vivo
# Description: To model human breast cancer metastasis to human bone implants two human bone discs were implanted subcutaneously into 10-week old female NOD SCID mice (n=10/group) under isofluorane anaesthetic. Mice received an injection of 0.003 mg vetergesic and Septrin was added to the drinking water for 1 week following bone implantation. Mice were left for 4 weeks before injecting 1×10^5 MDA-MB-231 Luc2-TdTomato, MCF7 Luc2 or T47D Luc2 cells in 20% Martigel/79% PBS/1% […] into the two hind mammary fat pads. Primary tumor growth and development of metastases was monitored weekly using an IVIS […] system (Caliper Life Sciences) following sub-cutaneous injection of 30 mg/ml D-luciferin (Invitrogen). On termination of experiments mammary tumors, circulating tumor cells, serum and bone metastases were resected. RNA was processed for downstream analysis by real time PCR, and cell lysates were taken for protein analysis and whole tissue for histology as previously described (Nutter et al., 2014; Ottewell et al., 2014a).
# as §1
# Whole blood was centrifuged at 10,000 g for 5 minutes and the serum removed for ELISA assays. The cell pellet was re-suspended in 5 ml of FSM lysis solution (Sigma-Aldrich, Pool, UK) to lyse red blood cells. Remaining cells were re-pelleted, washed 3x in PBS and re-suspended in a solution of PBS/10% FCS. Samples from 10 mice per group were pooled prior to isolation of TdTomato positive tumor cells using a MoFlow High performance cell sorter (Beckman Coulter, Cambridge UK) with the […] laser line from a Coherent I-90C tenable argon ion (Coherent, Santa Clara, CA). TdTomato fluorescence was detected by a 555LP dichroic long pass and a 580/30 nm band pass filter. Acquisition and analysis of cells was performed using Summit 4.3 software. Following sorting cells were immediately placed in RNA protect cell reagent (Ambion, Paisley, Renfrew, UK) and stored at -80° C. before RNA extraction.
# [4] = target: mouse IL-1β (Mus musculus, UniProt P10749); assay: Cross-reactivity with mouse IL-1β; type: binding
# Chain of mouse IL-1β (P10749 118-269): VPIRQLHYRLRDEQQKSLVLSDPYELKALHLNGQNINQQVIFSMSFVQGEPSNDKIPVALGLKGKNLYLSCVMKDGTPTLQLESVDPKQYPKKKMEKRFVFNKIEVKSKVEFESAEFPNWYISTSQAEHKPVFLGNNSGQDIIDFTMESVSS
# Text: A mouse surrogate anti-IL-1β antibody has been developed and is being used to evaluate the effects of blocking IL-1β in mouse models of cancer. This isotype of the surrogate antibody is IgG2a, which is closely related to human IgG1.
# [5] = test system: post-myocardial infarction patients with elevated hsCRP
# [6] = murine model of spontaneous human breast cancer metastasis to human bone
substance,measurement,setting,value
"canakinumab: high-affinity, fully human monoclonal antibody of the IgG1/k to interleukin-1β; INN number 8836",risk of major adverse cardiovascular events (MACE),[1],reduces the risk of major adverse cardiovascular events
same,length of new blood vessels,"[2]; 24 hours Ilaris, control 0.09 mm",0.06 mm
same,endothelin 1 and VEGF in the bone marrow (ELISA),[2]; compared with control,reduced concentrations
same,reduction in VEGF concentration,[2]; mice treated for 96 hours,46%
same,reduction in endothelin-1 concentration,[2]; mice treated for 96 hours,47%
same,average length of CD34^+ blood vessels in trabecular bone,[2]; p < 0.01 vs control,reduced the average length of CD34^+ blood vessels
same,mice with metastasis detected in human bone implants,"[3]; 1 mg/kg IL-1Ra daily or 10 mg/kg canakinumab s.c. every 14 days from day 7, control 7 out of 10",1 out of 10
same,"bone metastasis, photons/sec mean values",[3]; Placebo 3.60E+06,6.01E+04 photons/sec
same,size of bone metastases,[3]; compared with control group,smaller than those detected in the control group
same,bone turnover and neovascularisation,"[3]; mouse, in vivo",reduced bone turnover and neovascularisation
same,bone metastasis,[3]; [6],significantly reduced bone metastasis
same,primary tumour growth,[3]; [6],increasing primary tumour growth
same,tumor cells counted in whole blood,[3]; placebo 108 tumor cells/ml,3 tumor cells/ml
same,cross-reactivity with mouse IL-1β,[4],does not cross-react
same,"all-cause mortality, HR",[5]; canakinumab groups vs placebo,0.94
same,"non-cardiovascular mortality, HR",[5]; canakinumab groups vs placebo,0.97
same,Anemia (AE reports),[5]; in vivo,275 (1.11)
same,Erythrocytes (at 12 months): High (>6.8),[5]; in vivo,4 (0.07) N (%)
same,Erythrocytes (at 12 months): Low (<3.3),[5]; in vivo,19 ( 0.32) N (%)
same,Erythrocytes (at 12 months): Normal (3.3-6.8),[5]; in vivo,6002 (99.6) N (%)
same,"Leucocytes (at 12 months): High (>15,000)",[5]; in vivo,20 (0.33) N (%)
same,Leucocytes (at 12 months): Low (<3000),[5]; in vivo,27 (0.45) N (%)
same,Leucocytes (at 12 months): Normal (3000-<15000),[5]; in vivo,5978 (99.2) N (%)
same,Leukopenia (AE reports),[5]; in vivo,100 (0.40)
same,Neutropenia (AE reports),[5]; in vivo,25 (0.10)
same,Neutrophils (at 12 months): Grade 1 (1500-<LLN),[5]; in vivo,14 (0.24) N (%)
same,Neutrophils (at 12 months): Grade 2 (1000-<1500),[5]; in vivo,28 (0.47) N (%)
same,Neutrophils (at 12 months): Grade 3 (500-<1000),[5]; in vivo,5 (0.08) N (%)
same,Neutrophils (at 12 months): Grade 4 (<500),[5]; in vivo,0 (0.00) N (%)
same,Neutrophils (at 12 months): Normal N (%),[5]; in vivo,5891 (99.2) N (%)
same,"Platelets (at 12 months): Grade 1 (75,000-<LLN)",[5]; in vivo,782 (13.0) N (%)
same,"Platelets (at 12 months): Grade 2 (50,000-<75,000)",[5]; in vivo,10 (0.17) N (%)
same,"Platelets (at 12 months): Grade 3 (25,000-<50,000)",[5]; in vivo,4 (0.07) N (%)
same,"Platelets (at 12 months): Grade 4 (<25,000)",[5]; in vivo,0 (0.00) N (%)
same,Platelets (at 12 months): Normal N (%),[5]; in vivo,5216 (86.8) N (%)
same,Thrombocytopenia (AE reports),[5]; in vivo,150 (0.60)
same,Serious tuberculosis infections,[5]; similar rates in canakinumab and placebo treated groups,0.06%
